Experimental findings from article PMC8335659 are described below.

The test concerns the target GST-STG^9D. Briefly: pull-down; purified GST fusion of the STG C terminus incubated 1 h at 4 °C with lysate of HEK293T cells expressing FLAG-tagged μ2 or μ3, with or without 500 μM MPR^AA or MPR^DD peptide; glutathione Sepharose; blots with anti-FLAG and anti-GST.

B1: FLAG-tagged μ3 (natural protein)
chain: MIHSLFLINCSGDIFLEKHWKSVVSQSVCDYFFEAQEKAADVENVPPVISTPHHYLISIYRDKLFFVSVIQTEVPPLFVIEFLHRVADTFQDYFGECSEAAIKDNVVIVYELLEEMLDNGFPLATESNILKELIKPPTILRSVVNSITGSSNVGDTLPTGQLSNIPWRRAGVKYTNNEAYFDVVEEIDAIIDKSGSTVFAEIQGVIDACIKLSGMPDLSLSFMNPRLLDDVSFHPCIRFKRWESERVLSFIPPDGNFRLISYRVSSQNLVAIPVYVKHSISFKENSSCGRFDITIGPKQNMGKTIEGITVTVHMPKVVLNMNLTPTQGSYTFDPVTKVLAWDVGKITPQKLPSLKGLVNLQSGAPKPEENPNLNIQFKIQQLAISGLKVNRLDMYGEKYKPFKGVKYVTKAGKFQVRT
Molecule B1 returned a percent of μ3 pulled down (GST-STG^9A = 100%) of 21%.
